From the Immune Epitope Database (IEDB)
One block for each sequence: values may come before it.

What was measured:
[1] = target: HLA-B*15:02; test: IEDB peptide-MHC binding, purified MHC/competitive/fluorescence; filed as Kd, often an IC50 or EC50 that approximates it; ≥ and ≤ were set here for values at or beyond the usual limits of such assays
[2] = target: HLA-C*12:03; test: IEDB peptide-MHC binding, purified MHC/direct/fluorescence; filed as Kd, often an IC50 or EC50 that approximates it; ≥ and ≤ were set here for values at or beyond the usual limits of such assays; conditions: source organism: Francisella tularensis subsp. tularensis FSC198
[3] = target: HLA-A*02:12; test: IEDB peptide-MHC binding, purified MHC/competitive/fluorescence; filed as Kd, often an IC50 or EC50 that approximates it; ≥ and ≤ were set here for values at or beyond the usual limits of such assays
[4] = target: HLA-A*23:01; test: as above
[5] = target: HLA-B*18:01; test: as above
[6] = target: HLA-B*15:17; test: as above
[7] = target: HLA-A*26:01; test: as above
[8] = target: HLA-A*02:11; test: as above
[9] = target: HLA-A*29:02; test: as above
[10] = target: HLA-A*24:03; test: as above
[11] = target: HLA-A*02:19; test: as above
[12] = target: HLA-A*02:01; test: as above
[13] = target: HLA-B*39:01; test: as above
[14] = target: HLA-A*02:03; test: as above
[15] = target: HLA-B*51:01; test: as above
[16] = target: HLA-B*15:01; test: as above
[17] = target: HLA-B*27:03; test: as above
[18] = target: HLA-A*02:16; test: as above; conditions: source organism: Shigella dysenteriae Sd197
[19] = target: HLA-B*46:01; test: as above
[20] = target: HLA-A*03:01; test: as above
[21] = target: HLA-B*57:01; test: as above
[22] = target: HLA-A*26:03; test: IEDB peptide-MHC binding, purified MHC/direct/fluorescence; filed as Kd, often an IC50 or EC50 that approximates it; ≥ and ≤ were set here for values at or beyond the usual limits of such assays; conditions: source organism: Burkholderia mallei ATCC 23344
[23] = target: HLA-A*69:01; test: as above; conditions: source organism: Burkholderia mallei
[24] = target: HLA-A*31:01; test: as above; conditions: source organism: Burkholderia mallei
[25] = target: HLA-B*07:02; test: as above; conditions: source organism: Burkholderia mallei
[26] = target: HLA-B*40:01; test: as above; conditions: source organism: Burkholderia mallei
[27] = target: HLA-B*46:01; test: as above; conditions: source organism: Burkholderia mallei
[28] = target: HLA-B*48:01; test: as above; conditions: source organism: Burkholderia mallei
[29] = target: HLA-A*68:02; test: as above; conditions: source organism: Burkholderia mallei
[30] = target: HLA-A*11:01; test: as above; conditions: source organism: Burkholderia mallei
[31] = target: HLA-A*01:01; test: IEDB peptide-MHC binding, purified MHC/competitive/fluorescence; filed as Kd, often an IC50 or EC50 that approximates it; ≥ and ≤ were set here for values at or beyond the usual limits of such assays; conditions: source organism: Escherichia coli 536
[32] = target: HLA-A*02:06; test: as above; conditions: source organism: Escherichia coli 536
[33] = target: HLA-B*27:05; test: as above; conditions: source organism: Escherichia coli 536
[34] = target: HLA-A*26:02; test: as above; conditions: source organism: Escherichia coli 536
[35] = target: HLA-A*32:15; test: as above; conditions: source organism: Yersinia pestis Nepal516
[36] = target: HLA-B*15:42; test: as above; conditions: source organism: Yersinia pestis Nepal516
[37] = target: HLA-B*83:01; test: as above; conditions: source organism: Yersinia pestis Nepal516
[38] = target: HLA-B*45:06; test: as above; conditions: source organism: Yersinia pestis Nepal516
[39] = target: HLA-A*24:02; test: as above; conditions: source organism: Yersinia pestis Nepal516
[40] = target: HLA-C*06:02; test: as above; conditions: source organism: Yersinia pestis Nepal516
[41] = target: HLA-B*58:01; test: as above; conditions: source organism: Yersinia pestis Nepal516
[42] = target: HLA-B*40:13; test: as above; conditions: source organism: Yersinia pestis Nepal516
[43] = target: HLA-A*32:07; test: as above; conditions: source organism: Yersinia pestis Nepal516
[44] = target: HLA-A*68:23; test: as above; conditions: source organism: Yersinia pestis Nepal516
[45] = source organism: Shigella dysenteriae Sd197
[46] = source organism: Mycobacterium tuberculosis variant bovis BCG str. Pasteur 1173P2
[47] = source organism: Escherichia coli 536
[48] = source organism: Yersinia pestis Nepal516

Kd ([1]; source organism: Encephalitozoon cuniculi GB-M1): 0.155 µM
Sequence: ILKEYPQVY

Sequence: MIYNSFNPY
Kd [2]: ≥ 20 µM
Kd ([1]; source organism: Francisella tularensis subsp. tularensis FSC198): ≥ 20 µM

Sequence: IEDDEIIWV
Kd [3, 45]: ≥ 20 µM
Kd [4, 45]: ≥ 20 µM
Kd [5, 45]: ≥ 20 µM
Kd [6, 45]: ≥ 20 µM
Kd [7, 45]: ≥ 20 µM
Kd [8, 45]: 0.0002 µM
Kd [9, 45]: ≥ 20 µM
Kd [10, 45]: ≥ 20 µM
Kd [11, 45]: ≥ 20 µM
Kd [12, 45]: ≥ 20 µM
Kd [13, 45]: ≥ 20 µM
Kd [14, 45]: ≥ 20 µM
Kd [15, 45]: ≥ 20 µM
Kd [16, 45]: ≥ 20 µM
Kd [17, 45]: ≥ 20 µM
Kd [18]: ≥ 20 µM
Kd [19, 45]: ≥ 20 µM
Kd [20, 45]: ≥ 20 µM
Kd [21, 45]: ≥ 20 µM

Sequence: DIIGGPCAH
Kd [22]: 2 µM

Sequence: AEDLADHHV
Kd [3, 46]: ≥ 20 µM
Kd [4, 46]: ≥ 20 µM
Kd [5, 46]: ≥ 20 µM
Kd [6, 46]: ≥ 20 µM
Kd [7, 46]: ≥ 20 µM
Kd [8, 46]: 0.0131 µM
Kd [9, 46]: ≥ 20 µM
Kd [10, 46]: ≥ 20 µM
Kd [11, 46]: ≥ 20 µM
Kd [12, 46]: ≥ 20 µM
Kd [13, 46]: ≥ 20 µM
Kd [14, 46]: ≥ 20 µM
Kd [15, 46]: ≥ 20 µM
Kd [16, 46]: ≥ 20 µM
Kd [17, 46]: ≥ 20 µM
Kd [19, 46]: ≥ 20 µM
Kd [20, 46]: ≥ 20 µM
Kd [21, 46]: ≥ 20 µM

Sequence: KLYPNVDFY
Kd [23]: ≥ 20 µM
Kd [24]: 3.63 µM
Kd [25]: ≥ 20 µM
Kd [26]: ≥ 20 µM
Kd [27]: ≥ 20 µM
Kd [28]: ≥ 20 µM
Kd [29]: ≥ 20 µM
Kd [30]: 0.225 µM
Kd [5, 47]: ≥ 20 µM
Kd [6, 47]: 0.207 µM
Kd [7, 47]: ≥ 20 µM
Kd [31]: 3.47 µM
Kd [32]: 1.6 µM
Kd [12, 47]: ≥ 20 µM
Kd [16, 47]: 0.107 µM
Kd [33]: ≥ 20 µM
Kd [34]: ≥ 20 µM

Sequence: MLYPLLWMF
Kd [35]: 0.155 µM
Kd [36]: ≥ 5 µM
Kd [37]: ≥ 5 µM
Kd [38]: ≥ 5 µM
Kd [39]: 0.0377 µM
Kd [40]: 3.57 µM
Kd [12, 48]: 0.169 µM
Kd [16, 48]: 0.406 µM
Kd [41]: 2.06 µM
Kd [42]: 3.5 µM
Kd [43]: 0.599 µM
Kd [44]: 0.968 µM
